Here are results for one molecule from patent publication US20230052646A1 (JJP BIOLOGICS SP Z O O, published 2023).

For experiment [1], the target named is T1, membrane-bound full-length human HVEM on stable HVEM-transfected HEK293F cells (clone no. 128) (human, UniProt Q92956 39-283).
T1 construct: The same cDNA was also expressed on Sf9 insect cells; also called TNFRSF14; CD270
T1 sequence: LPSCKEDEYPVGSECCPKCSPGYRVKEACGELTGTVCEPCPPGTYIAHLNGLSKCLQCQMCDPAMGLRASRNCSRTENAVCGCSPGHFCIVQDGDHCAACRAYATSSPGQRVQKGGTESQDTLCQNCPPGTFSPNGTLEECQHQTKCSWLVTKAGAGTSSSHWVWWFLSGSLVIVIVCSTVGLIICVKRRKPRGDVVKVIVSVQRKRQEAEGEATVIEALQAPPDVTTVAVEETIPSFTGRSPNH
In words: FACS titration on HVEM-HEK293F, half-maximum binding. How it is done: In order to determine the relative binding affinity of purified BTLA/HVEM blocking chimeric mouse/human anti-human HVEM antibodies no. 36H12, 45H6, 48H6, 11H7, and 49G4 for human HVEM, FACS analysis was used.
To this end, stable human full-length HVEM-transfected HEK293F cells (clone no. 128; see Example 1(a) above) were put at 10×10⁶ cells/mL in ice-chilled PBS containing 0.1% BSA (Sigma)/0.05% NaN₃ (PBS/BSA/NaN₃) supplemented with 50 μg/mL human IgGs (blocking possible Fcγ receptors; Sigma) for 10 minutes at 4° C. Then, 10 μL/tube (i.e., 0.1×10⁶ cells) of these cells were incubated with or without 100 μL titrated (in PBS/BSA/NaN₃) purified BTLA/HVEM blocking chimeric mouse/human anti-human HVEM antibody/tube for 30 minutes at 4° C. After extensive washing in PBS/BSA/NaN₃, cells were subsequently incubated with 1:200 diluted PE-conjugated goat anti-human IgG Fcγ-specific antibodies (Jackson ImmunoResearch) for 30 minutes at 4° C. After extensive washing in PBS/BSA/NaN₃, cells were fixed in 4% formaldehyde in PBS/BSA/NaN₃ for 30 minutes at 4° C. Binding (geo-mean fluorescence intensity) of chimeric mouse/human anti-human HVEM antibodies no. 36H12, 45H6, 48H6, 11H7, and 49G4 on membrane human HVEM was measured using a flow cytometer (FACSCalibur; BD Biosciences). For comparison, purified BTLA/HVEM blocking mouse anti-human HVEM antibody counterparts no. 36H12, 45H6, 48H6, 11H7, and 49G4 were run in parallel, and their binding was monitored as described in Example 2 (a).

For experiment [2], the target named is T1, membrane-bound full-length human HVEM …. In words: FACS, Ab 10 µg/mL then biotinylated BTLA on HVEM-HEK293F. The procedure:
Generation of human ‘full-length’ HVEM-transfected HEK293F cells (clone no. 128) is described in Example 1a. Binding of soluble human BTLA, of soluble human CD160, of soluble human LIGHT, and of soluble human TNFβ on surface human HVEM-transfected cells was analysed by FACS analysis. To this end, stable human full-length HVEM-transfected HEK293F cells were put at 10×10⁶ cells/mL in ice-chilled phosphate-buffered saline containing 0.1% BSA (Sigma)/0.05% NaN₃ (PBS/BSA/NaN₃) supplemented with 50 μg/mL human IgGs (blocking possible Fcγ receptors; Sigma) for 10 minutes at 4° C. Then, 10 μL/tube (i.e., 0.1×10⁶ cells) of these cells were incubated with or without 100 μL purified chimeric mouse/human anti-HVEM antibody at 10 μg/mL/tube or a human IgG4/κ (Sigma) negative isotype control at 10 μg/mL/tube for 30 minutes at 4° C. After this (i.e., without washing), cells were subsequently incubated with 1 μg/mL soluble biotinylated human BTLA (Sino Biological Inc), with 10 μg/mL soluble his-tagged human CD160 (Sino Biological Inc), with 1 μg/mL soluble his-tagged human LIGHT (Sino Biological Inc), or with 0.1 μg/mL soluble biotinylated human TNFβ (Sino Biological Inc) in PBS/BSA/NaN₃ for 30 minutes at 4° C. After extensive washing in PBS/BSA/NaN₃, cells were incubated with 1:200 diluted PE-conjugated streptavidin (detection BTLA and TNFβ; Jackson ImmunoResearch) or with biotinylated mouse anti-his antibody (detection CD160 and LIGHT; R&D Systems) at 10 μg/mL for 30 minutes at 4° C. After extensive washing in PBS/BSA/NaN₃, cells were incubated with 1:200 diluted PE-conjugated streptavidin (detection CD160 and LIGHT; Jackson ImmunoResearch) for 30 minutes at 4° C. After extensive washing in PBS/BSA/NaN₃, cells were fixed in 4% formaldehyde in PBS/BSA/NaN₃ for 30 minutes at 4° C. Binding of ligands BTLA, CD160, LIGHT and TNFβ on membrane human HVEM was measured using a flow cytometer (model FACSCalibur; BD Biosciences). For comparison, purified BTLA/HVEM blocking mouse anti-human HVEM antibody counterparts no. 36H12, 45H6, 48H6, 11H7, and 49G4 at 10 μg/mL/tube and a mouse IgG1 (BD Biosciences) negative isotype control at 10 μg/mL/tube were run in parallel.

B1: mouse anti-human HVEM antibody no. 36H12 (antibody, mouse IgG1, V domains shown)
VH: EVQLQQSGAGLVKPGASVKLSCTASGFNIKDTYMHWVRQRPEQGLEWIGRIDPATANTKYDPKFQGKATLTTDTSSNTAYLQLSSLTSEDTAVYYCVTYGYDVSWFAYWGLGALVTVSA
VL: DVLMTQTPLSLPVSLGDQASISCRSSQSIVHSNGITYLEWYLQKPGQSPKLLIYKVSNRFSGVPDRFSGSGSGTDFTLKISRVEAEDLGVYYCFQGSHVPLTFGAGTKLELK
notes: mouse IgG1/kappa; also called 36H12 (mouse)
The term EC50 denotes the concentration giving half of the maximal effect. B1 returned an EC50 in experiment [1] of 0.43 µg/mL. For the same molecule, in experiment [2], the “% blocking of ligand binding” value was > 95%.
